Test results from patent publication US20230029835A1 (KEYMED BIOSCIENCES, published 2023).
Where two headings read alike, the source gives them in different places.

T1: Cynomolgus macaques TSLP recombinant protein (Cynomolgus macaques, UniProt Q969D9 29-159 (human entry), limits assumed, biotinylated in the blocking assays (sites not given))
T1 construct: also called cyTSLP; biotinylated Cynomolgus macaques TSLP protein
T1 chain: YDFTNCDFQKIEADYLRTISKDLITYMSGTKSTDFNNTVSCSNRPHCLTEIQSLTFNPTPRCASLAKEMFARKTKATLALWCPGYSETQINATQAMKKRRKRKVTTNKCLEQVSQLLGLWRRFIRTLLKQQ


Experiments:
[1] = biological target: T2, human TSLP recombinant protein (human, UniProt Q969D9 29-159, biotinylated in the blocking and cell-binding assays (sites not given)); assay: competition ELISA, biotin-human TSLP to coated human TSLPR-Fc
T2 construct: also called biotinylated human TSLP protein

[2] = biological target: T1, Cynomolgus macaques TSLP recombinant …; assay: competition ELISA, biotin-cynomolgus TSLP to coated cynomolgus TSLPR-Fc
Method: Cynomolgus macaques TSLPR recombinant protein was coated onto a 96-well microtiter plate at 1 μg/mL in carbonate buffer overnight at 4° C. The plate was washed three times with PBS and blocked by adding 200 μL/well of PBS containing 2% skim milk for 1 hour. […] The 96-well plate was washed three times with PBS, and 100 μL of the incubated mixture was added to each well and incubated for 1 hour at room temperature. After washing with PBST and PBS three times, respectively, 100 μL of SA-HRP was added to each well and incubated at room temperature for 30 minutes in the dark. After washing with PBST and PBS three times, respectively, 100 μL of TMB substrate was added to well for color development at 37° C. for 10 minutes, the reaction was terminated with 50 μL of 2M sulfuric acid solution per well, and the absorbance was read at a wavelength of 450 nm.

[3] = biological target: T2, human TSLP recombinant protein; assay: cell-based or functional assay
[4] = biological target: T2, human TSLP recombinant protein; assay: SPR BIAcore T200, antibody captured on Protein A, human TSLP injected
Method: After each injection cycle, the Protein A chip surface was regenerated with regeneration buffer 10 mM glycine (pH 2.0) at a flow rate of 30 μL/min.
The association rate constant (ka) and dissociation rate constant (kd) and equilibrium dissociation constant KD were analyzed by fitting the resulting data to a Langmuir 1:1 kinetics theoretical model using BIAevaluation software.

[5] = biological target: T1, Cynomolgus macaques TSLP recombinant …; assay: ELISA on coated cynomolgus TSLP
Method: (§1) The plate was washed three times with PBS and blocked by adding 200 μL/well of PBS containing 2% skim milk for 1 hour. […] After washing with PBST and PBS three times, respectively, 100 μL of TMB substrate was added to each well for color development at 37° C. for 10 minutes, the reaction was terminated with 50 μL of 2M sulfuric acid solution per well, and the absorbance was read at a wavelength of 450 nm.

[6] = biological target: T2, human TSLP recombinant protein; assay: ELISA on coated human TSLP
Method: as §1

[7] = biological target: T2, human TSLP recombinant protein; assay: cell-based or functional assay; remark: listed apart in the source
[8] = biological target: T2, human TSLP recombinant protein; assay: cell-based or functional assay; remark: listed apart in the source
[9] = biological target: T2, human TSLP recombinant protein; assay: flow cytometry competition, biotin-human TSLP to Ba/F3-hTSLPR-IL7Rα cells
Method: Ba/F3-hTSLPR-IL7Rα cells were washed three times with PBS, centrifuged at 300 g for 3 minutes, and blocked with 3% BSA/PBS for 30 minutes. The cells were resuspended and added to a 96-well U-plate at 5×10⁴/well.

[10] = biological target: T1, Cynomolgus macaques TSLP recombinant …; assay: SPR BIAcore T200, antibody captured on Protein A, cynomolgus TSLP injected
Method: (§2) After each injection cycle, the Protein A chip surface was regenerated with regeneration buffer 10 mM glycine (pH 2.0) at a flow rate of 30 μL/min. The association rate constant (ka) and dissociation rate constant (kd) and equilibrium dissociation constant KD were analyzed by fitting the resulting data to a Langmuir 1:1 kinetics theoretical model using BIAevaluation software.

[11] = biological target: T1, Cynomolgus macaques TSLP recombinant …; assay: ELISA on coated cynomolgus TSLP
Method: as §1

[12] = biological target: T2, human TSLP recombinant protein; assay: competition ELISA, biotin-human TSLP to coated human TSLPR-Fc; remark: listed apart in the source
Method: Human TSLPR recombinant protein was coated onto a 96-well microtiter plate at 1 μg/mL in carbonate buffer overnight at 4° C. The plate was washed three times with PBS and blocked by adding 200 μL/well of PBS containing 2% skim milk for 1 hour. […] The 96-well plate was washed three times with PBS, and 100 μL of the incubated mixture was added to each well and incubated for 1 hour at room temperature. After washing with PBST and PBS three times, respectively, 100 μL of SA-HRP was added to each well and incubated at room temperature for 30 minutes in the dark. After washing with PBST and PBS three times, respectively, 100 μL of TMB substrate was added to well for color development at 37° C. for 10 minutes, the reaction was terminated with 50 μL of 2M sulfuric acid solution per well, and the absorbance was read at a wavelength of 450 nm.

[13] = biological target: T1, Cynomolgus macaques TSLP recombinant …; assay: competition ELISA, biotin-cynomolgus TSLP to coated cynomolgus TSLPR-Fc
Method: Cynomolgus macaques TSLPR recombinant protein was coated onto a 96-well microtiter plate at 1 g/mL in carbonate buffer overnight at 4° C. The plate was washed three times with PBS and blocked by adding 200 μL/well of PBS containing 2% skim milk for 1 hour. […] The 96-well plate was washed three times with PBS, and 100 μL of the incubated mixture was added to each well and incubated for 1 hour at room temperature. After washing with PBST and PBS three times, respectively, 100 μL of SA-HRP was added to each well and incubated at room temperature for 30 minutes in the dark. After washing with PBST and PBS three times, respectively, 100 μL of TMB substrate was added to well for color development at 37° C. for 10 minutes, the reaction was terminated with 50 μL of 2M sulfuric acid solution per well, and the absorbance was read at a wavelength of 450 nm.

[14] = biological target: T2, human TSLP recombinant protein; assay: ELISA on coated human TSLP; remark: listed apart in the source
Method: as §1

[15] = biological target: T2, human TSLP recombinant protein; assay: SPR BIAcore T200, antibody captured on Protein A, human TSLP injected; remark: listed apart in the source
Method: as §2

[16] = biological target: T2, human TSLP recombinant protein; assay: cell-based or functional assay; remark: listed apart in the source

| Binder | IC50 [1] [pM] | IC50 [2] [pM] | Inhibition IC50 of STAT5 reporter gene [3] [pM] | Kd [4] [pM] | koff [4] [s⁻¹] | kon [4] [M⁻¹ s⁻¹] | EC50 [5] [pM] | EC50 [6] [pM] | Inhibition of Cell Proliferation IC50 [7] [pM] | STAT5 signal inhibition IC50 [8] [pM] | IC50 [9] [pM] | Kd [10] [pM] | koff [10] [s⁻¹] | kon [10] [M⁻¹ s⁻¹] | EC50 [11] [pM] | IC50 [12] [pM] | IC50 [13] [pM] | EC50 [14] [pM] | Kd [15] [pM] | koff [15] [s⁻¹] | other results |
| --- | --- | --- | --- | --- | --- | --- | --- | --- | --- | --- | --- | --- | --- | --- | --- | --- | --- | --- | --- | --- | --- |
| 80B12 chimeric antibody (antibody, V domains shown) VH: QVQLQQSGPQLVRPGASVKISCKASGYSFTTYWMHWVKQRPGQGLEWIGLIDPSDGEAGLNQNFKDKATLTVDISSRTAYMQISSPTSEDSAVYFCARSLDGYYDYWGQGTTLTVSS VL: DIQMTQSPASLSASVGETVTITCRASEDIYSYLAWYQQKQGKSPQLLVYNAKTLAEGVPSRFSGSGSGTQFSLKINSLQPEDFGSYYCQHFWSTPWTFGGGTKLELK | 2580 | 540 | 5790 | 22.4 | 0.000108 | 4.82e+06 | 550 | 340 | – | – | – | – | – | – | – | – | – | – | – | – | – |
| 80E11 chimeric antibody (antibody, V domains shown) VH: QVQLQQSGPQLVRPGASVKISCKASGYSFTSYWMHWVKQRPGQGLEWIGVIDPSDSETILNQKFKDKATLTVDKSSSTAYMQFSSPTSEDSAVYYCARSLDGYYDYWGQGTTLTVSS VL: DIQMTQSPASLSASVGETVTITCRAGENIYSYLAWYQQKQGKSPQLLVYNAKTLAEGVPSRFSGSASGTQFSLKINSLQPEDFGSYYCQHFWGTPWAFGGGTRLEIK | 1800 | 1150 | 13600 | 18.5 | 0.000123 | 6.62e+06 | 570 | 150 | – | – | – | – | – | – | – | – | – | – | – | – | – |
| Ab23 (antibody, V domains shown, Humanized; also called h39G5VHv2/h71G4VKv1; h39G5VHv2/h71G4VKv1 hIgG1) VH: QVQLVQSGAEVKKPGSSVKVSCKASGYSFISYWIHWVRQAPGQGLEWMGIIDPSDSDTSLNQKFQGRVTITADESTSTAYMELSSLRSEDTAVYYCARSLDGYYDYWGQGTLVTVSS VL: DIQMTQSPSSLSASVGDRVTITCRTSENIYSYLAWYQQKPGKAPKLLIYFAKTLTDGVPSRFSGSGSGTDFTLTISSLQPEDFATYYCQHHYGTPWTFGQGTKVEIK | – | – | – | – | – | – | – | – | 1100 | 170 | 330 | 0.00708 | 1.36e-08 | 1.93e+06 | 830 | 1760 | 1540 | 240 | 0.0812 | 1.61e-07 | kon [15]: 1.98e+06 M⁻¹ s⁻¹ |
| Ab22 (antibody, V domains shown, Humanized; also called h39G5VHv1/h71G4VKv1; h39G5VHv1/h7IG4VKv1 hIgG1) VH: QVQLVQSGAEVKKPGSSVKVSCKASGYSFISYWIHWVRQAPGQGLEWMGIIDPSDSDTSLNQKFQGRVTLTVDKSSTTAYMELSSLRSEDTAVYYCARSLDGYYDYWGQGTLVTVSS VL: DIQMTQSPSSLSASVGDRVTITCRTSENIYSYLAWYQQKPGKAPKLLIYFAKTLTDGVPSRFSGSGSGTDFTLTISSLQPEDFATYYCQHHYGTPWTFGQGTKVEIK | – | – | – | – | – | – | – | – | 2200 | 170 | 390 | 0.0421 | 6.7e-08 | 1.59e+06 | 770 | 1800 | 1000 | 290 | 0.064 | 1.07e-07 | kon [15]: 1.68e+06 M⁻¹ s⁻¹ |
| 71G4 chimeric antibody (antibody, V domains shown) VH: QVQLQQSGAELVMPGASVKMSCKASGYTFTDYWMHWVKQRPGQGLEWIGTIDNSDSDTTYNQKFKGKVTLTVDESSSTAYMQLSSLTSEDSAVYYCARSVDGYLDYWGQGTTLTVSS VL: EIQMTQSPASLSASVGETVTITCRTSENIYSYLAWYQQKQGKSPQLLVYFAKTLTDGVPSRLSGSGSGTQFSLKINSLQPEDFGSYYCQHHYGTPWTFGGGTKLEIK | 1520 | 560 | 1670 | 10 | 3.16e-05 | 3.15e+06 | 600 | 320 | – | – | – | – | – | – | – | – | – | – | – | – | Inhibition IC50 of cell proliferation [16]: 12700 pM |
| 39G5-H8 chimeric antibody (antibody, V domains shown) VH: QVQLLQSGPQLVRPGASVKISCKASGYSFISYWIHWVKQRPGQGLEWIGIIDPSDSDTSLNQKFKDKATLTVDKSSTTAYIQLSSPTSEDSAVYYCARSLDGYYDYWGQGTTLTVSS VL: DIQMTQSPASLSASVGETVTITCRASENIYSYLAWYQQKQGKSPQLLVYNARTLPEGVPSRFSGSGSGTQFSLKINSLQPEDFGIYYCQHHYTTPWTFGGGTKLEIK | 3420 | 1740 | 3330 | 9.5 | 4.6e-05 | 4.84e+06 | 540 | 150 | – | – | – | – | – | – | – | – | – | – | – | – | Inhibition IC50 of cell proliferation [16]: 39100 pM |
| 80D12 chimeric antibody (antibody, V domains shown) VH: QVQLKQSGPQLVRPGASVKISCKASGYSFTSYWMHWVKQRPGQGLEWIGMIDPSDSETTLNQKFKDKATLTVDKSSTTAYMQLSSPTSEDSAVYYCARSLDGYYDYWGQGTTLTVSS VL: DVQMIQSPASLSASVGETVTITCRTSENIYSYLAWYQQKQGKSPQLLVYFAKTLTDGVPSRFSGSGSGTQFSLKINSLQPEDFGSYYCQHHYGTPWTFGGGTKLEIK | 2440 | 630 | 3840 | 5.96 | 2.84e-05 | 4.77e+06 | 350 | 210 | – | – | – | – | – | – | – | – | – | – | – | – | Inhibition IC50 of cell proliferation [16]: 44700 pM |

Now from value to binder, other results behind:

| IC50 [1] [pM] | IC50 [2] [pM] | Inhibition IC50 of STAT5 reporter gene [3] [pM] | Kd [4] [pM] | koff [4] [s⁻¹] | kon [4] [M⁻¹ s⁻¹] | EC50 [5] [pM] | EC50 [6] [pM] | Inhibition of Cell Proliferation IC50 [7] [pM] | STAT5 signal inhibition IC50 [8] [pM] | IC50 [9] [pM] | Kd [10] [pM] | koff [10] [s⁻¹] | kon [10] [M⁻¹ s⁻¹] | EC50 [11] [pM] | IC50 [12] [pM] | IC50 [13] [pM] | EC50 [14] [pM] | Kd [15] [pM] | koff [15] [s⁻¹] | Binder | other results |
| --- | --- | --- | --- | --- | --- | --- | --- | --- | --- | --- | --- | --- | --- | --- | --- | --- | --- | --- | --- | --- | --- |
| – | – | – | – | – | – | – | – | 1040 | 150 | 360 | 0.179 | 2.85e-07 | 1.59e+06 | 1370 | 2010 | 1630 | 220 | 0.0234 | 3.99e-08 | Ab24 (antibody, V domains shown, Humanized; also called h39G5VHv5/h71G4VKv1; h39G5VHv5/h71G4VKv1 hIgG1) VH: QVQLVQSGAEVKKPGSSVKVSCKASGYTFTDYWMHWVRQAPGQGLEWMGIIDPSDSDTSLNQKFQGRVTLTVDTSTSTAYMELSSLRSEDTAVYYCARSLDGYYDYWGQGTLVTVSS VL: DIQMTQSPSSLSASVGDRVTITCRTSENIYSYLAWYQQKPGKAPKLLIYFAKTLTDGVPSRFSGSGSGTDFTLTISSLQPEDFATYYCQHHYGTPWTFGQGTKVEIK | kon [15]: 1.7e+06 M⁻¹ s⁻¹ |
| – | – | – | – | – | – | – | – | 1500 | 180 | 390 | 0.308 | 3.82e-07 | 1.24e+06 | 950 | 1660 | 690 | 180 | 2.03 | 2.79e-06 | Ab26 (antibody, V domains shown, Humanized; also called h39G5VHv10/h71G4VKv1; h39G5VHv10/h71G4VKv1 hIgG1) VH: QVQLVQSGAEVKKPGSSVKVSCKASGYTFTDYWMHWVRQAPGQGLEWMGIIDPSDSDTSLNQKFQGRVTITADTSTSTAYMELSSLRSEDTAVYYCARSLDGYYDYWGQGTLVTVSS VL: DIQMTQSPSSLSASVGDRVTITCRTSENIYSYLAWYQQKPGKAPKLLIYFAKTLTDGVPSRFSGSGSGTDFTLTISSLQPEDFATYYCQHHYGTPWTFGQGTKVEIK | kon [15]: 1.37e+06 M⁻¹ s⁻¹ |
| – | – | – | – | – | – | – | – | 30700 | 1140 | 270 | – | – | – | – | 1980 | 470 | – | – | – | Murine anti-71G4 (mAb71G4) (antibody, V domains shown, also called murine antibody 71G4) VH: QVQLQQSGAELVMPGASVKMSCKASGYTFTDYWMHWVKQRPGQGLEWIGTIDNSDSDTTYNQKFKGKVTLTVDESSSTAYMQLSSLTSEDSAVYYCARSVDGYLDYWGQGTTLTVSS VL: EIQMTQSPASLSASVGETVTITCRTSENIYSYLAWYQQKQGKSPQLLVYFAKTLTDGVPSRLSGSGSGTQFSLKINSLQPEDFGSYYCQHHYGTPWTFGGGTKLEIK | – |
| – | – | – | – | – | – | – | – | 58900 | 4920 | 360 | – | – | – | – | 1950 | 1600 | – | – | – | Murine anti-39G5 (mAb39G5) (antibody, V domains shown, also called murine antibody 39G5) VH: QVQLLQSGPQLVRPGASVKISCKASGYSFISYWIHWVKQRPGQGLEWIGIIDPSDSDTSLNQKFKDKATLTVDKSSTTAYIQLSSPTSEDSAVYYCARSLDGYYDYWGQGTTLTVSS VL: DIQMTQSPASLSASVGETVTITCRASENIYSYLAWYQQKQGKSPQLLVYNARTLPEGVPSRFSGSGSGTQFSLKINSLQPEDFGIYYCQHHYTTPWTFGGGTKLEIK | – |
